Assay results as given in patent publication US20120324602A1.

Columns and labels:
[1] = biological target: expressed protein, similar to At4g22320 (AT5G55210) (Arabidopsis thaliana); experiment: TAP-MS, C-terminal GS tag
[2] = biological target: unknown, similar to At5g55210 (AT4G22320) (Arabidopsis thaliana); experiment: TAP-MS, C-terminal GS tag
[3] = biological target: HIS4 (Arabidopsis thaliana); experiment: TAP-MS, C-terminal GS tag
[4] = biological target: AAC1 (ADP/ATP CARRIER 1) (Arabidopsis thaliana); experiment: TAP-MS, C-terminal GS tag
[5] = biological target: OASA1 (O-… (THIOL) LYASE (OAS-TL) ISOFORM A1) (Arabidopsis thaliana); experiment: TAP-MS, C-terminal GS tag
[6] = biological target: DNA-binding bromodomain-containing protein (AT1G20670) (Arabidopsis thaliana); experiment: TAP-MS, C-terminal GS tag
[7] = biological target: SNF2 protein (BRM) (Arabidopsis thaliana); experiment: TAP-MS, C-terminal GS tag
[8] = biological target: T1, actin-related protein 4 (ARP4) (Arabidopsis thaliana); experiment: TAP-MS, C-terminal GS tag
T1 sequence (Q84M92 1-441, looked up): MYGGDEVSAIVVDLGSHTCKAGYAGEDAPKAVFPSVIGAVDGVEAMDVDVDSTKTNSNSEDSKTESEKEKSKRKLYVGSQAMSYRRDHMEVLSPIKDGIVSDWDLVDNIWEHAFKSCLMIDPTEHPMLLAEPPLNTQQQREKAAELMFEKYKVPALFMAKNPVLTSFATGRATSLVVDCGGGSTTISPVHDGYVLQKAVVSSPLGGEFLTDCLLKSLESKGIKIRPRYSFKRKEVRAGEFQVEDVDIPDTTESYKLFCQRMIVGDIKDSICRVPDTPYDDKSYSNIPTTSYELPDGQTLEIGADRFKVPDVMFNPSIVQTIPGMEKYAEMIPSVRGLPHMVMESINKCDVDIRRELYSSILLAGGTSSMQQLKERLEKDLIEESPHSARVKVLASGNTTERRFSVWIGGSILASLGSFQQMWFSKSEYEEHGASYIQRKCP

[9] = biological target: Swp73A (Arabidopsis thaliana); experiment: TAP-MS, C-terminal GS tag
[10] = biological target: T2, GLX1 (GLYOXALASE I HOMOLOG) (Arabidopsis thaliana); experiment: TAP-MS, C-terminal GS tag
T2 sequence (O65398 2-283, looked up): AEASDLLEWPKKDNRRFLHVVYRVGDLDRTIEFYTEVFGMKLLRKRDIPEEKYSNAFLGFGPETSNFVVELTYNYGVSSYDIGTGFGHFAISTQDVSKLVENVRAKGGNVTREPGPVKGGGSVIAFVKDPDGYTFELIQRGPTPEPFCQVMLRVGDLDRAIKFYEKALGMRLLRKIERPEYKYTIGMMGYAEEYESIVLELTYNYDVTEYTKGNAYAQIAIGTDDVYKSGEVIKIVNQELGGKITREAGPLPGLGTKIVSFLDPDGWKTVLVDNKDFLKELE

[11] = biological target: SWIB complex BAF60b domain-containing protein (Swp73B) (Arabidopsis thaliana); experiment: TAP-MS, C-terminal GS tag
[12] = biological target: DNA-binding bromodomain-containing protein, similar to At1g20670 (AT1G76380) (Arabidopsis thaliana); experiment: TAP-MS, C-terminal GS tag
[13] = biological target: T3, actin-related protein 7 (ARP7) (Arabidopsis thaliana); experiment: TAP-MS, C-terminal GS tag
T3 sequence (Q8L4Y5 1-363, looked up): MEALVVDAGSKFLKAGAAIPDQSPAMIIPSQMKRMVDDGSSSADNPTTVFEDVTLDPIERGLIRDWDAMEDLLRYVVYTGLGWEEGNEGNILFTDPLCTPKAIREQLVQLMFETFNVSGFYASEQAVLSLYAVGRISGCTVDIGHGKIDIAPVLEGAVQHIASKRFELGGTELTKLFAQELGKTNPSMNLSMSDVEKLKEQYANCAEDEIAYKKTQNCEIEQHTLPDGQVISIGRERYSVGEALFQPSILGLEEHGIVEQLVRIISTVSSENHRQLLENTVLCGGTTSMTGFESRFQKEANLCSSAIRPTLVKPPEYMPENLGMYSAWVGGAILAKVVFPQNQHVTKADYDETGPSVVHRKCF

[14] = biological target: expressed protein, similar to At3g03460 (AT5G17510) (Arabidopsis thaliana); experiment: TAP-MS, C-terminal GS tag
[15] = biological target: DNA-binding bromodomain-containing protein (AT1G20670) (Arabidopsis thaliana); experiment: TAP-MS, N-terminal GS tag
[16] = biological target: SNF2 protein (BRM) (Arabidopsis thaliana); experiment: TAP-MS, N-terminal GS tag
[17] = biological target: T1, actin-related protein 4 (ARP4) (Arabidopsis thaliana); experiment: TAP-MS, N-terminal GS tag
[18] = biological target: expressed protein, similar to At4g22320 (AT5G55210) (Arabidopsis thaliana); experiment: TAP-MS, N-terminal GS tag
[19] = biological target: Swp73A (Arabidopsis thaliana); experiment: TAP-MS, N-terminal GS tag
[20] = biological target: SWIB complex BAF60b domain-containing protein (Swp73B) (Arabidopsis thaliana); experiment: TAP-MS, N-terminal GS tag
[21] = biological target: CPK23 (calcium-dependent protein kinase 23) (Arabidopsis thaliana); experiment: TAP-MS, N-terminal GS tag
[22] = biological target: DNA-binding bromodomain-containing protein, similar to At1g20670 (AT1G76380) (Arabidopsis thaliana); experiment: TAP-MS, N-terminal GS tag
[23] = biological target: T3, actin-related protein 7 (ARP7) (Arabidopsis thaliana); experiment: TAP-MS, N-terminal GS tag
[24] = biological target: unknown protein, similar to At5g17510 (AT3G03460) (Arabidopsis thaliana); experiment: TAP-MS, N-terminal GS tag
[25] = biological target: expressed protein, similar to At3g03460 (AT5G17510) (Arabidopsis thaliana); experiment: TAP-MS, N-terminal GS tag

B1: ARP7-GS (protein, UniProt Q8L4Y5 1-363, looked up)
Actin-related protein 7: MEALVVDAGSKFLKAGAAIPDQSPAMIIPSQMKRMVDDGSSSADNPTTVFEDVTLDPIERGLIRDWDAMEDLLRYVVYTGLGWEEGNEGNILFTDPLCTPKAIREQLVQLMFETFNVSGFYASEQAVLSLYAVGRISGCTVDIGHGKIDIAPVLEGAVQHIASKRFELGGTELTKLFAQELGKTNPSMNLSMSDVEKLKEQYANCAEDEIAYKKTQNCEIEQHTLPDGQVISIGRERYSVGEALFQPSILGLEEHGIVEQLVRIISTVSSENHRQLLENTVLCGGTTSMTGFESRFQKEANLCSSAIRPTLVKPPEYMPENLGMYSAWVGGAILAKVVFPQNQHVTKADYDETGPSVVHRKCF
modifications: C-terminal GS tag
With B1 the C-GS (times co-purified) [1] was 2, the C-GS (times co-purified) [2] was 2 and the C-GS (times co-purified) [3] was 1. It also gave a C-GS (times co-purified) [4] of 1 and a C-GS (times co-purified) [5] of 1.

B2: SWI3C-GS (protein, UniProt Q9XI07 1-807, looked up)
SWI/SNF complex subunit SWI3C: MPASEDRRGKWKRKKRGGLSAARKPKQEEEDMEEEDEENNNNNNEEMDDVENADELQQNGGATPDPGLGIGEVVEDSGSRISDFPAVVKRVVIRPHASVMAVVAAERAGLIGETRGQGSLPALENISFGQLQALSTVPADSLDLERSDGSSSAYVISPPPIMDGEGVVKRFGDLVHVLPMHSDWFAPNTVDRLERQVVPQFFSGKSPNHTPESYMEFRNAIVSKYVENPEKTLTISDCQGLVDGVDIEDFARVFRFLDHWGIINYCATAQSHPGPLRDVSDVREDTNGEVNVPSAALTSIDSLIKFDKPNCRHKGGEVYSSLPSLDGDSPDLDIRIREHLCDSHCNHCSRPLPTVYFQSQKKGDILLCCDCFHHGRFVVGHSCLDFVRVDPMKFYGDQDGDNWTDQETLLLLEAVELYNENWVQIADHVGSKSKAQCILHFLRLPVEDGLLDNVEVSGVTNTENPTNGYDHKGTDSNGDLPGYSEQGSDTEIKLPFVKSPNPVMALVAFLASAVGPRVAASCAHESLSVLSEDDRMKSEGMQGKEASLLDGENQQQDGAHKTSSQNGAEAQTPLPQDKVMAAFRAGLSAAATKAKLFADHEEREIQRLSANIVNHQLKRMELKLKQFAEIETLLMKECEQVEKTRQRFSAERARMLSARFGSPGGISPQTNNLQGMSLSTGGNNINSLMHQQHQQQQASATSQPSIIPGFSNNPQVQAQMHFMARQQQQQQQQQQQQQQAFSFGPRLPLNAIQTNAGSTASPNVMFGNNQLNNPAAAGAASINQPSFSHPMVRSSTGSGSGSGLGLN
modifications: C-terminal GS tag
B2 showed a C-GS (times co-purified) [6] of 2, a C-GS (times co-purified) [7] of 2 and a C-GS (times co-purified) [8] of 2. For the same binder, the C-GS (times co-purified) [1] was 2, the C-GS (times co-purified) [9] was 2 and the C-GS (times co-purified) [2] was 1. The C-GS (times co-purified) [10] was 1, the C-GS (times co-purified) [11] was 2 and the C-GS (times co-purified) [12] was 2. For the same binder, the C-GS (times co-purified) [13] was 2, the C-GS (times co-purified) [5] was 1 and the C-GS (times co-purified) [14] was 2.

B3: GS-SWI3C (protein, UniProt Q9XI07 1-807, looked up)
SWI/SNF complex subunit SWI3C: MPASEDRRGKWKRKKRGGLSAARKPKQEEEDMEEEDEENNNNNNEEMDDVENADELQQNGGATPDPGLGIGEVVEDSGSRISDFPAVVKRVVIRPHASVMAVVAAERAGLIGETRGQGSLPALENISFGQLQALSTVPADSLDLERSDGSSSAYVISPPPIMDGEGVVKRFGDLVHVLPMHSDWFAPNTVDRLERQVVPQFFSGKSPNHTPESYMEFRNAIVSKYVENPEKTLTISDCQGLVDGVDIEDFARVFRFLDHWGIINYCATAQSHPGPLRDVSDVREDTNGEVNVPSAALTSIDSLIKFDKPNCRHKGGEVYSSLPSLDGDSPDLDIRIREHLCDSHCNHCSRPLPTVYFQSQKKGDILLCCDCFHHGRFVVGHSCLDFVRVDPMKFYGDQDGDNWTDQETLLLLEAVELYNENWVQIADHVGSKSKAQCILHFLRLPVEDGLLDNVEVSGVTNTENPTNGYDHKGTDSNGDLPGYSEQGSDTEIKLPFVKSPNPVMALVAFLASAVGPRVAASCAHESLSVLSEDDRMKSEGMQGKEASLLDGENQQQDGAHKTSSQNGAEAQTPLPQDKVMAAFRAGLSAAATKAKLFADHEEREIQRLSANIVNHQLKRMELKLKQFAEIETLLMKECEQVEKTRQRFSAERARMLSARFGSPGGISPQTNNLQGMSLSTGGNNINSLMHQQHQQQQASATSQPSIIPGFSNNPQVQAQMHFMARQQQQQQQQQQQQQQAFSFGPRLPLNAIQTNAGSTASPNVMFGNNQLNNPAAAGAASINQPSFSHPMVRSSTGSGSGSGLGLN
modifications: N-terminal GS tag
With B3 the N-GS (times co-purified) [15] was 3, the N-GS (times co-purified) [16] was 3 and the N-GS (times co-purified) [17] was 3. The N-GS (times co-purified) [18] was 2, the N-GS (times co-purified) [19] was 3 and the N-GS (times co-purified) [20] was 3. For the same binder, the N-GS (times co-purified) [21] was 1, the N-GS (times co-purified) [22] was 2 and the N-GS (times co-purified) [23] was 3. For the same binder, the N-GS (times co-purified) [24] was 1 and the N-GS (times co-purified) [25] was 3.
